The DeepSol protein solubility set

Experiment: soluble on expression in E. coli; label from the status in PepcDB or PDB records

Q: Which “soluble on expression in E. coli” value does the source give for “MSKIDFHTHYLPTSYVEALKRHVPGDPDGWPTPEWTPQLTLNFMRDNDISYSILSLSSPHVNFGDKAETIRLVEAANDDGKSLAQQYPDQLGYLASLPIPYELDAVKTVQQALDQDGALGVTVPTNSRGLYFGSPVLERVYQELDARQAIVALHPNEPAILPKNVDIDLPVPLLGFFMDTTMTFINMLKYHFFEKYPNIKVIIPHAGAFLGIVDDEIAQYAQKVYQVDVYDVMHHVYFDVAGAVLPRQLPTLMSLAQPEHLLYGSDIPYTPLDGSRQLGHALATTDLLTNEQKQAIFYDNAHRLLTELEHHHHHH” here?
A: Its value is “not soluble”.

Q: With “MSKIFEDNSLTIGHTPLVRLNRIGNGRILAKVESRNPSFSVKCRIGANMIWDAEKRGVLKPGVELVEPTSGNTGIALAYVAAARGYKLTLTMPETMSIERRKLLKALGANLVLTEGAKGMKGAIQKAEEIVASNPEKYLLLQQFSNPANPEIHEKTTGPEIWEDTDGQVDVFIAGVGTGGTLTGVSRYIKGTKGKTDLISVAVEPTDSPVIAQALAGEEIKPGPHKIQGIGAGFIPANLDLKLVDKVIGITNEEAISTARRLMEEEGILAGISSGAAVAAALKLQEDESFTNKNIVVILPSSGERYLSTALFADLFTEKELQQ” as the sequence, how does the “soluble on expression in E. coli” value read?
A: Its value is “soluble”.

Q: With “MSKIRVHEYAKKHNISSKDLMTKLKEMNIEVSNHMTMLDDEVVNKLDNEYQAEKPSVADEFEVEEKVVRSKKNSNKKKKKGKGNEDKRQENFAGRQQTQTVETPDKITFSGSLTVGDLAKKLSKEPSEIIKKLFMLGIMATINQDLDKDTIELIANDYGIEVEEEVIVSETEFETFIDEQDDEENLKERPAVVTIMGHVDHGKTTLLDSIRNSKVTAGEAGGITQHIGAYQVELNDKKITFLDTPGHAAFTTMRARGAQVTDITIIVVAADDGVMPQTVEAINHAKAAGVPIIVAVNKMDKPAANPDRVMQELTEYELVPEAWGGDTIFVPISAIQGEGIDNLLEMILLISEVEEYKANPNRYATGTVIEAQLDKGKGTIATLLVQNGTLRVGDPIVVGTSFGRVRAMVSDIGRRVKVAGPSTPVEITGLNEVPQAGDRFMAFADEKKARQIGESRAQEALLAQRGEKSKLSLEDLFQQIQEGDVKEINLIVKADVQGSVEAMAASLRKIDVEGVKVKIIHTGVGAITESDIILASASNAIVIGFNVRPDVNAKRTAELENVDIRLHRIIYKVIEEIEAAMQGMLDPEFEEKVIGQAEVRQTFKVTKVGTIAGCYVTDGKITRDSGVRIIRDGVVIFEGQLDTLKRFKDDVKEVAQNYECGITIERYNDLKEGDIIEAYIMEEVKR” as the sequence, how does the “soluble on expression in E. coli” value read?
A: Its value is “not soluble”.

Q: Which “soluble on expression in E. coli” value does the source give for “MSKKFVNKAEEAVDDALFGLVSSNSNVKFHKSCRRVVHITDLNPSHHVSLIAGGGSGHEPYAAGYVGKGLLTAAIAGNVFASPPSRNVQAALEATRGEAGAILFVINYTGDRLNFGLAAERFNASGGTARVVTIADDVAIDSPNSKVGRRGLAGAVLTIKIAGAMAWEGKSLDEIYETSQKVVSSMGTLGVSLYTGSLPGKNRETELPDDQIEVGLGIHGEPGKFRAQFGSANRIVHSLLDTLRSKMEMREGEKFVVLVNNLGSVSQLEMNIVNGEVLRYFEDHKIGITRFFSGIYMTSLDGHGVSVTILRADDSMLQYLDAPAAAPGWIPALSVQKCVDHQEISDSSSQGDLISEIPASGVTVNAQLVEACVGGVVDAMLESEKHLNQLDAYAGDGDCGSTFAGAAEAIRKQTSGLNYTHPETLLKQLSIIFEQTVGGTSGALYALMFSSAAQSFAQRSQRGEKIDRTSILEALDKANRAVQKYGGARVGDRTMVDGLDAMVEELRKGFSGNEESLDAIFEAAVKASEKAAKATASQTATVGRASYTSSEAQTKPDAGATAISLWLRACWTAYKSEK” here?
A: The value was “not soluble”.

Q: For “MSKLAIIAGDGIGPEVTAEAVKVLDAVVPGVQKTSYDLGARRFHATGEVLPDSVVAELRNHDAILLGAIGDPSVPSGVLERGLLLRLRFELDHHINLRPARLYPGVASPLSGNPGIDFVVVREGTEGPYTGNGGAIRVGTPNEVATEVSVNTAFGVRRVVADAFERARRRRKHLTLVHKTNVLTFAGGLWLRTVDEVGECYPDVEVAYQHVDAATIHMITDPGRFDVIVTDNLFGDIITDLAAAVCGGIGLAASGNIDATRANPSMFEPVHGSAPDIAGQGIADPTAAIMSVALLLSHLGEHDAAARVDRAVEAHLATRGSERLATSDVGERIAAAL”, which “soluble on expression in E. coli” value is on record?
A: Its value is “soluble”.

Q: For “MSKLDLNALNELPKVDRILALAETNAELEKLDAEGRVAWALDNLPGEYVLSSSFGIQAAVSLHLVNQIRPDIPVILTDTGYLFPETYRFIDELTDKLKLNLKVYRATESAAWQEARYGKLWEQGVEGIEKYNDINKVEPMNRALKELNAQTWFAGLRREQSGSRANLPVLAIQRGVFKVLPIIDWDNRTIYQYLQKHGLKYHPLWDEGYLSVGDTHTTRKWEPGMAEEETRFFGLKRECGLHEGLEHHHHHH”, which “soluble on expression in E. coli” value is on record?
A: Its value is “soluble”.

Q: Which “soluble on expression in E. coli” value does the source give for “MSKLPEIGTKISLTDKAYEIIKDAIMTNIFKPGELLIEEKLAEQLAISRTPLRAALRKLAYDHLVEINSSRNVIVANIGQKDVEEITVVREVLEPLAVKELENNIGEDELKKLEEILCRQKKAVLEDNYEELIKMEYEFHVAIGELTHNKWLHGMLKDINTIVQRYLILSGSLNKYKEVAIKEHEVIISEIRQGNYDKAVESMKCHISNVSSRMLK” here?
A: The value was “not soluble”.

Q: With “MSKPGRTILASKVAETFNTEIINNVEEYKKTHNGQGPLLVGFLANNDPAAKMYATWTQKTSESMGFRYDLRVIEDKDFLEEAIIQANGDDSVNGIMVYFPVFGNAQDQYLQQVVCKEKDVEGLNHVYYQNLYHNVRYLDKENRLKSILPCTPLAIVKILEFLKIYNNLLPEGNRLYGKKCIVINRSEIVGRPLAALLANDGATVYSVDVNNIQKFTRGESLKLNKHHVEDLGEYSEDLLKKCSLDSDVVITGVPSENYKFPTEYIKEGAVCINFACTKNFSDDVKEKASLYVPMTGKVTIAMLLRNMLRLVRNVELSKEK” as the sequence, how does the “soluble on expression in E. coli” value read?
A: Its value is “soluble”.

Q: For “MSKQLLALNIDGALLRSNGKIHQATKDAIEYVKKKGIYVTLVTNRHFRSAQKIAKSLKLDAKLITHSGAYIAEKIDAPFFEKRISDDHTFNIVQVLESYQCNIRLLHEKYSIGNKKKVNSNLLGKALIHPSDPIFYPVQFVESLSDLLMDEPVSAPVIEVYTEHDIQHDITETITKAFPAVDVIRVNDEKLNIVPKGVSKEAGLALVASELGLSMDDVVAIGHQYDDLPMIELAGLGVAMGNAVPEIKRKADWVTRSNDEQGVAYMMKEYFRMQQRKGFLDKFHMKRV”, which “soluble on expression in E. coli” value is on record?
A: The value was “not soluble”.

Q: For “MSKRKAEEAPAPKLASIFTKKVKPAEEDNNQKSWKFVCWNVAGLRACVKKSDFKEVLAEEPDLVFLGETKCKEWPPEMEETFKNYTKTLVVSTEKNGGYAGVGLLSKCAPMKVHKGIGDPEFDTAGRLIIAEFSKFYFIGAYVPNSGAKLVNLEKRGRWEKLLTEKMKEMDEKKPVIYGGDLNVAHNEIDLKNPESNRNKTAGFTDQERGWFSEMLELGFTDTFRAMHPDEKKYSFWSYLANSRQKDVGWRLDYYVVSNRIMNKVKRSDIMSSVMGSDHAPVVMQIDF”, which “soluble on expression in E. coli” value is on record?
A: Its value is “soluble”.

Q: Which “soluble on expression in E. coli” value does the source give for “MSKSLKKLVEESREKNQPEVDMSDRGISNMLDVNGLFTLSHITQLVLSHNKLTMVPPNIAELKNLEVLNFFNNQIEELPTQISSLQKLKHLNLGMNRLNTLPRGFGSLPALEVLDLTYNNLSENSLPGNFFYLTTLRALYLSDNDFEILPPDIGKLTKLQILSLRDNDLISLPKEIGELTQLKELHIQGNRLTVLPPELGNLDLTGQKQVFKAENNPWVTPIADQFQLGVSHVFEYIRSETYKYLYGRHMQANPEPPKKNNDKSKKISRKPLAAKNR” here?
A: Its value is “not soluble”.
